Laboratory results reported in paper PMC11682927.

Target: His-BACH1-BTB (amino acids 7-128) (human) (UniProt O14867)
Test: SEC-MALS

His-BACH1-BTB (amino acids 7-128) (human), sequence (O14867 7-128): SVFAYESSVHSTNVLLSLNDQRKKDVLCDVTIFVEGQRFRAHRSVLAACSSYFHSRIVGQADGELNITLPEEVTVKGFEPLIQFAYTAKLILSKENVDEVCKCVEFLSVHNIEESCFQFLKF
Tag-free FBXO22-SKP1 complex, sequence (Q8NEZ5 whole entry): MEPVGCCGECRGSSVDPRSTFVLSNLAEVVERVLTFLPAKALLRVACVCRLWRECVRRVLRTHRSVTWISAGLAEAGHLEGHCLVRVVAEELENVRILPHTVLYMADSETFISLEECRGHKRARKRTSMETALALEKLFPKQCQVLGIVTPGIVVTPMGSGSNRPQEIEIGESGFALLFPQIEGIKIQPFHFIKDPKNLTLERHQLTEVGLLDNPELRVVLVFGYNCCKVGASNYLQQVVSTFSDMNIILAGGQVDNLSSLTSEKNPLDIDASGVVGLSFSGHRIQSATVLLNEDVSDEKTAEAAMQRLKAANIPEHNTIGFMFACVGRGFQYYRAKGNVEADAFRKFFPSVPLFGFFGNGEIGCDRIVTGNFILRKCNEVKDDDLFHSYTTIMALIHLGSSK
Tag-free FBXO22-SKP1 complex, sequence (P63208 whole entry): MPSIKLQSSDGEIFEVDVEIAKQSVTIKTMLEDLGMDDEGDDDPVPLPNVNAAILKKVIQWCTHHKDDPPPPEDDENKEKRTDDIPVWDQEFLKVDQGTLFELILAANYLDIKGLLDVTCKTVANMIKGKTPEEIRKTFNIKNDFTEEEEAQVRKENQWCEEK

stoichiometry N (FBXO22-SKP1 per BACH1 BTB dimer): 1
Substance: Tag-free FBXO22-SKP1 complex (from UniProt Q8NEZ5 1-403; P63208 1-163)
